Among the data in patent US20230295635, “DNA APTAMERS FOR EOSINOPHIL PEROXIDASE DETECTION” (McMaster University, published 2023) are binding result and Kd values, retold here.

As usually defined, the Kd is the equilibrium constant for the complex coming apart. The low end stands for tighter binding, the high end for weaker binding.

For series [1], the target named is T1, Eosinophil peroxidase (EPX) (UniProt P11678;P11678 P11678:140-250,P11678:251-715). Put plainly: EMSA; value only in figure; weaker than EAP1-05; 1x SB pH 9. As to conditions: tags: Cedarlane #342-60-0.1; untagged commercial protein; label: fluorescent (FAM).
Series [2] addresses T1, Eosinophil peroxidase (EPX). In words: FP; PBS pH 7.4, room temperature. As to conditions: tags: Cedarlane #342-60-0.1, untagged commercial protein, label: 5'-FAM.
The target is the same in series [3]. In words: EMSA; 1x SB (50 mM Tris, 1 M NaCl, 5 mM MgCl2, 2 mM KCl, pH 9), poly(dI-dC); from loss of free aptamer band. As to conditions: tags: Cedarlane #342-60-0.1; untagged commercial protein; label: 5'-FAM; 3' stem loop.
The target is the same in series [4]. Put plainly: FP; 0.5x SB, room temperature. The note with it: tags: Cedarlane #342-60-0.1; untagged commercial protein; label: 5'-FAM; 3' stem loop.
The target is the same in series [5]. In words: pulldown; HB (50 mM HEPES, 300 mM NaCl, 15 mM MgCl2, pH 7.5), TMB signal; LoD 1 nM in buffer, 1.25 nM in sputum. As to conditions: tags: Cedarlane #342-60-0.1; untagged commercial protein; label: 5'-biotin. Here is the method:
(§1) EPX pulldown assay: Biotinylated EAP1-05T3 was immobilized on streptavidin-coated agarose beads as follows: 200 µL of streptavidin-coated agarose slurry was transferred into a 1.5 mL Eppendorf tube and washed with 500 µL of 1x HB (50 mM HEPES, 300 mM NaCl, 15 mM MgCl2, 0.01% Tween20, pH 7.5). 1 nmole of biotinylated EAP1-05T3 was added to this slurry and rotated gently for 1 h to bind the aptamers with the beads. The beads were washed 5x with 500 µL of 1x HB each time and finally suspended in 1000 µL of 1x HB and stored at 4° C. until use. 50 µL of this bead slurry was used for each pull-down experiment.
Sensitivity test in buffer: EPX stocks of different concentrations (10.0, 5.0, 2.5, 1.25, 0.625, 0.312, 0.156, 0.078, 0.039 and 0.019 µM) were made in 1x HB. Similar to specificity test, 50 µL of aptamer conjugated beads slurry was transferred in each fresh Eppendorf tube (3 tubes for each concentration for triplicate experiments). 1.0 µL of each protein was added to their respected tube and incubated at room temperature for 30 minutes with occasional pipetting for homogeneous binding. Only buffer was added in the control experiment tube that was labelled as buffer. […] This yellow solution was immediately transferred into 96 well plate and the OD was measured at 450 nm using a Tecan plate reader. […]

For another series, the target named is Myeloperoxidase (MPO) (UniProt P05164;P05164 P05164:165-273,P05164:279-745). Put plainly: pulldown; HB, 1 uM protein; no TMB signal. The note with it: tags: Cedarlane #426-10-0.1; untagged commercial protein; chain copies: 2; label: 5'-biotin.
A further series deals with Lactoperoxidase (LPO) (UniProt P80025 P80025:101-712). Put plainly: pulldown; HB, 1 uM protein; no TMB signal.
Series [6] has as its target Bovine serum albumin (BSA) (Bos taurus, UniProt P02769 P02769:25-607). In words: pulldown; HB; no TMB signal (BSA has no peroxidase activity). The note with it: label: 5'-biotin. Here is the method:
as §1
Specificity test: 50 µL of aptamer-conjugated beads from above were aliquoted in each tube and labelled for each experiment: Buffer, EPX, MPO, LPO, TPO and BSA respectively. 1 µM stock of each of protein was made in 1x HB. Next, 1.0 µL of each protein was added to their respected tube and incubated at room temperature for 30 minutes with occasional pipetting for homogeneous binding. Only buffer was added in the control experiment tube that was labelled as buffer. Then the beads were sedimented by brief centrifugation using a benchtop centrifuge and washed 3× using 300 µL 1x HB. Next, the beads were resuspended in 25 µL HB. […] This yellow solution was immediately transferred into 96 well plate and the OD was measured at 450 nm using Tecan plate reader. […]

In series [7] the target is T1, Eosinophil peroxidase (EPX). Put plainly: EMSA; 3 nM aptamer, 5 nM EPX; small positive impact of middle deletion. The note with it: tags: Cedarlane #342-60-0.1; untagged commercial protein; label: 5'-FAM. Here is the method: Next, EAP1-05 was subjected to truncation and deletion experiments to shorten the aptamer and improve its binding ability. The aptamer was truncated by removing various DNA segments (FIG. 2A), and the fraction of aptamer bound to EPX was assessed by EMSA using 3 nM of aptamer and a single EPX concentration of 5 nM and calculating the decrease in free aptamer fluorescence in EMSA gels.
(In EMSA bound probe runs differently from free probe, usually more slowly.)

T1 sequence (P11678 140-250, chain 1 of 2): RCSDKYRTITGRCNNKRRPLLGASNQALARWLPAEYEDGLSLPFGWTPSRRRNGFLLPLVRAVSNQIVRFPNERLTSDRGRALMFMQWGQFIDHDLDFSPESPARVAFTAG
T1 sequence (P11678 251-715, chain 2 of 2): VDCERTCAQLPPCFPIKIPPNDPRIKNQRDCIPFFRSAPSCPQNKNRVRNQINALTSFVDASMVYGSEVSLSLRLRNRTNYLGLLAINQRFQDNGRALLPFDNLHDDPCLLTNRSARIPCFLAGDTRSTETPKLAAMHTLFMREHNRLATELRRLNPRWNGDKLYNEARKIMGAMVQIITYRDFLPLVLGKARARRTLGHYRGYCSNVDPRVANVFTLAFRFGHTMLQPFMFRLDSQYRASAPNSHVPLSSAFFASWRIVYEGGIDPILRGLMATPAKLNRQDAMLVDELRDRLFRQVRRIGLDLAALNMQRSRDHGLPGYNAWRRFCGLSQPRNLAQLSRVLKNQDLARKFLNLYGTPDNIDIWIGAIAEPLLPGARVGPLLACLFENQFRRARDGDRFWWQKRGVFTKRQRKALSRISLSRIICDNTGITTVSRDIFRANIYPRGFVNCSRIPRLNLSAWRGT
Sequence of Bovine serum albumin (BSA) (P02769 25-607, one chain of several): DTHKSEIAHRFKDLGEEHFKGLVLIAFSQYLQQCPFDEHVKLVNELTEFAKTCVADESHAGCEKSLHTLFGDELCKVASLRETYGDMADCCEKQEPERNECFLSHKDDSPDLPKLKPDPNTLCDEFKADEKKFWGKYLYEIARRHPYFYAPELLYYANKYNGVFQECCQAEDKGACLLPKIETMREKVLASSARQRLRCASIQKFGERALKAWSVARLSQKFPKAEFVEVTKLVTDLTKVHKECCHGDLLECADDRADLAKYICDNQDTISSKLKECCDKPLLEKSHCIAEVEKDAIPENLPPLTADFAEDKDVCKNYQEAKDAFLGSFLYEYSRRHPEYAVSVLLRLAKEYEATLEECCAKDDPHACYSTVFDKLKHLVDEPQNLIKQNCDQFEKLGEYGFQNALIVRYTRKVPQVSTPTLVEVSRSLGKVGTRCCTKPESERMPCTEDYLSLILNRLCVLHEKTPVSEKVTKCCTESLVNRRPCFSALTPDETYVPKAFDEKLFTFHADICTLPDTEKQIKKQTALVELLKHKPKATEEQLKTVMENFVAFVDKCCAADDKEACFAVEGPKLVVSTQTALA
Sequence of Myeloperoxidase (MPO) (P05164 165-273, chain 1 of 2): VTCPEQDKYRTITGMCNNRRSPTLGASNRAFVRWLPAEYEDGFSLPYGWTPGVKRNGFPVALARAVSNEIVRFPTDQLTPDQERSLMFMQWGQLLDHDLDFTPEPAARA
Sequence of Myeloperoxidase (MPO) (P05164 279-745, chain 2 of 2): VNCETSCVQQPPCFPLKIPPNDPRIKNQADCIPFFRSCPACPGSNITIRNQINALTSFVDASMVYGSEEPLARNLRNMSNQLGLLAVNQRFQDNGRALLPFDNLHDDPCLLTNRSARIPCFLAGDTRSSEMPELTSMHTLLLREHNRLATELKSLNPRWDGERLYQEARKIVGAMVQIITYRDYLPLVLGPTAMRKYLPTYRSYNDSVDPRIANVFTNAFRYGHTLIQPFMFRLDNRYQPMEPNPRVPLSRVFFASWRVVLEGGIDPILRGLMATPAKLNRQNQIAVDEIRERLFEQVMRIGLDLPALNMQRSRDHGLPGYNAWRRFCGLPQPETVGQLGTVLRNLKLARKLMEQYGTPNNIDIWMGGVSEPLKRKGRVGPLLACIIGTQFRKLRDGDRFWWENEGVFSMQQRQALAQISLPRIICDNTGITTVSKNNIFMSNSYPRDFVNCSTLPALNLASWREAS

B1: EAP2-10 (ssDNA)
DNA: ATGCCATCCTACCAACAGGGAGGGGGCGGTTAGGGAATGGTGGTCCGGGCGGGGTAGAGCTCTGAACTGG
Take B1: the binding result in [1] is recorded as “binds”.

B2: EAP2-09 (ssDNA)
DNA: ATGCCATCCTACCAACACGACCGGTGTAGAGGGGGGTATACGGAATGGGGGTTGTGGAGCTCTGAACTGG
For the molecule B2, the binding result in series [1] is reported as “binds”.

B3: EAP1-05 (ssDNA)
DNA: ATGCCATCCTACCAACCAGGGGGACAGTGCAAAGGGGTAGGGAGGGGGCTAGGGGGGAGCTCTGAACTGG
On to B3, for which the Kd in series [2] (3' stem loop) was 4.3 nM; in series [3], 9.2 nM; in [4] it was 36.6 nM.

B4: EAP1-05T3BT (ssDNA)
DNA: TTTTTTTTTTATGCCATCCTACCAACCAGGGGGACAGTGCAAAGGGAGCTCTGAACTCG
Turning to B4, the binding result in series [5] is “binds”; with Myeloperoxidase (MPO), “no binding”; with Lactoperoxidase (LPO), “no binding”; in series [6], “no binding”.

B5: EAP1-01 (ssDNA)
DNA: ATGCCATCCTACCAACCACGGGGATCGGGTGGGGGCTAGGCGGCGTGTGCACGGGGGAGCTCTGAACTGG
For B5, the binding result in series [1] is given as “binds”.

B6: EAP1-05T3 (ssDNA)
DNA: ATGCCATCCTACCAACCAGGGGGACAGTGCAAAGGGAGCTCTGAACTCG
In the case of B6, binding in series [2] was characterised by a dissociation constant (Kd) of 4.8 nM.

B7: EAP2-01 (ssDNA)
DNA: ATGCCATCCTACCAACCGCGGGAGGAGACTGGTGTAGGGGGCATGGGATGGCCTGGGAGCTCTGAACTGG
Regarding B7, the binding result in series [1] is “binds”.

B8: EAP1-08 (ssDNA)
DNA: ATGCCATCCTACCAACCAGTTGCCGGTGGGGTGACCCGGTGGGGGAGGGTGTGGGGGAGCTCTGAACTGG
With B8, the binding result in [1] is recorded as “binds”.

B9: EAP2-40 (ssDNA)
DNA: ATGCCATCCTACCAACCAGGGGGCGCGGGAGGGGGCCTGACGTCGAGGGGGTTGGGGAGCTCTGAACTGG
As to B9, the binding result in series [1] is reported as “binds”.

B10: EAP2-18 (ssDNA)
DNA: ATGCCATCCTACCAACATGGGGATATCCGGCGGGGGCATCAGGGGGGAGTGCGGGTGAGCTCTGAACTGG
Regarding B10, in [1], the binding result is “binds”.

B11: EAP1-05T2 (ssDNA)
DNA: ATGCCATCCTACCAATAGGGAGGGGGCTAGGGGGGAGCTCTGAACTCG
With B11, the binding result in series [7] is listed as “binds”.

B12: EAP1-15 (ssDNA)
DNA: ATGCCATCCTACCAACCGGGGGAGCAAGGTGTAGGGGTAGGGGGCCATGCGAGGGGGAGCTCTGAACTGG
On to B12, for which, in [1], the binding result was “binds”.

B13: EAP1-20 (ssDNA)
DNA: ATGCCATCCTACCAACAGCAGCGGGCGGGGGCCAGTGGGGGATGTAGCCGGGGGTGGAGCTCTGAACTGG
As to B13, the binding result in series [1] is recorded as “binds”.
